Test results published in patent US20260217793A1 (Chugai, published 2026).

T1: human FcγRIIa type H (His131) extracellular domain with C-terminal His tag (human, UniProt P12318 34-217)
T1 sequence (looked up): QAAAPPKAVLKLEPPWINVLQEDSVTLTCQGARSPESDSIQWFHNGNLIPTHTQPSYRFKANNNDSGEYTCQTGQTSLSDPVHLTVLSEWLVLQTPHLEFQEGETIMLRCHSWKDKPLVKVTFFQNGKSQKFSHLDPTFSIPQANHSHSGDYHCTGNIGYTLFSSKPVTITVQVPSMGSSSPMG

T2: human FcγRIIb extracellular domain with C-terminal His tag (human, UniProt P31994 43-217)
T2 sequence (looked up): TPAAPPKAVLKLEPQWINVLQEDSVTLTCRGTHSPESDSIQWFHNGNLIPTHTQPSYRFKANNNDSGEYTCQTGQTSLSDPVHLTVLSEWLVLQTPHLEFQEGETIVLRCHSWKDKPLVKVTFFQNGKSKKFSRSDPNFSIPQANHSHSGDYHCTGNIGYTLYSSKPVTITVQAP

T3: human FcγRIIa type R (Arg131) extracellular domain with C-terminal His tag (human, UniProt P12318 34-217)
T3 sequence (looked up): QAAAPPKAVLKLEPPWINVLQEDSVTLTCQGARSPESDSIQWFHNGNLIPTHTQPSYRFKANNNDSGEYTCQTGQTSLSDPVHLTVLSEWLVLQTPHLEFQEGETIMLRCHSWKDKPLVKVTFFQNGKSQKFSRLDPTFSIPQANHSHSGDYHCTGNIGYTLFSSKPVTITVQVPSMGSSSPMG

T4: mouse FcγRIII (mouse, UniProt P08508 31-215)
T4 sequence (looked up): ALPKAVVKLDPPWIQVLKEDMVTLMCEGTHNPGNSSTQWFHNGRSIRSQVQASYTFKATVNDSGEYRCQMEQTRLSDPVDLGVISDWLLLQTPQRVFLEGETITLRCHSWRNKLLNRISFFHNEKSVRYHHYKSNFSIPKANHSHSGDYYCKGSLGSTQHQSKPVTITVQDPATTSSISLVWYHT


Experiments:
Assay in all cases: SPR
[1] = target: human FcγRIIIa type V (Val158) extracellular domain with C-terminal His tag (human, UniProt P08637 17-208)
[2] = target: human FcγRIa extracellular domain with C-terminal His tag (human, UniProt P12314 16-292)
[3] = target: T1, human FcγRIIa type H (His131) …
[4] = target: T2, human FcγRIIb extracellular domain with …
[5] = target: T3, human FcγRIIa type R (Arg131) …
[6] = target: T2, human FcγRIIb extracellular domain with …; remark: listed apart in the source
[7] = target: T3, human FcγRIIa type R (Arg131) …; remark: listed apart in the source
[8] = target: T2, human FcγRIIb extracellular domain with …; remark: listed apart in the source
[9] = target: T2, human FcγRIIb extracellular domain with …; remark: listed apart in the source
mouse FcγRIII = target: T4, mouse FcγRIII

human FcγRIIIa type V (Val158) extracellular domain with C-terminal His tag, sequence (P08637 17-208 F176V): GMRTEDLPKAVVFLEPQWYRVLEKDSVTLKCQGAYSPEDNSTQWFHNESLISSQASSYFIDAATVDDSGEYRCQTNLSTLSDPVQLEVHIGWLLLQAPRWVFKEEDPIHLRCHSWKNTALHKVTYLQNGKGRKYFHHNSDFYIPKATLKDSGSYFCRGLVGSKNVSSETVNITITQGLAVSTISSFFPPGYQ
human FcγRIa extracellular domain with C-terminal His tag, sequence (P12314 16-292): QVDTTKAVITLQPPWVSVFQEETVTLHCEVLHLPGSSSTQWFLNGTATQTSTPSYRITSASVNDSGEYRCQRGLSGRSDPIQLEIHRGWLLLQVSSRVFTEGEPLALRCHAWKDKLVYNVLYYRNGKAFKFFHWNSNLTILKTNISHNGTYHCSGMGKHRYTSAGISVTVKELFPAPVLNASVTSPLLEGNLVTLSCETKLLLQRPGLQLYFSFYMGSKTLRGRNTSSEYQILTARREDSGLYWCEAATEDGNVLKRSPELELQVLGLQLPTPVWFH

Kd [1] [nM]	Kd [2] [nM]	Kd [3] [nM]	Kd [4] [nM]	Kd [5] [nM]	KD (IIb) of parent polypeptide/KD (IIb) of altered polypeptide [6]	KD (IIaR) of parent polypeptide/KD (IIaR) of altered polypeptide [7]	KD (IIaR)/KD (IIb) [8]	KD (IIaH)/KD (IIb) [9]	Kd (mouse FcγRIII) [nM]	Binder
36000	15									IL6R-BP558/IL6R-L (antibody, human IgG1, kappa) heavy: QVQLQESGPGLVKPSETLSLTCAVSGHSISHDHAWSWVRQPPGEGLEWIGFISYSGITNYNPSLQGRVTISRDNSKNTLYLQMNSLRAEDTAVYYCARSLARTTAMDYWGEGTLVTVSSASTKGPSVFPLAPSSKSTSGGTAALGCLVKDYFPEPVTVSWNSGALTSGVHTFPAVLQSSGLYSLSSVVTVPSSSLGTQTYICNVNHKPSNTKVDKKVEPKSCDKTHTCPPCPAPELLGDDSVFLFPPKPKDTLMISRTPEVTCVVIDVGEEDGDVKFNWYVDGVEVHNAKTKPREEQYNSTYRVVSVLTVLHQDWLNGKEYKCKVSNKALPRPIEKTISKAKGQPREPQVYTLPPSRDELTKNQVSLTCLVKGFYPSDIAVEWESNGQPENNYKTTPPVLDSDGSFFLYSKLTVDKSRWQQGNVFSCSVMHEALHNHYTQESLSLSP light: not shown
25000	0.19	11000	15	680	211	1.6	46.1	748		IL6R-BP568/IL6R-L (antibody, human IgG1, kappa) heavy: QVQLQESGPGLVKPSETLSLTCAVSGHSISHDHAWSWVRQPPGEGLEWIGFISYSGITNYNPSLQGRVTISRDNSKNTLYLQMNSLRAEDTAVYYCARSLARTTAMDYWGEGTLVTVSSASTKGPSVFPLAPSSKSTSGGTAALGCLVKDYFPEPVTVSWNSGALTSGVHTFPAVLQSSGLYSLSSVVTVPSSSLGTQTYICNVNHKPSNTKVDKKVEPKSCDKTHTCPPCPAPDLLGGDSVFLFPPKPKDTLMISRTPEVTCVVIDVAEEDGEVKFNWYVDGVEVHNAKTKPREEQYNSTYRVVSVLTVLHQDWLNGKEYKCKVSNKALPAPIEKTISKAKGQPREPQVYTLPPSRDELTKNQVSLTCLVKGFYPSDIAVEWESNGQPENNYKTTPPVLDSDGSFFLYSKLTVDKSRWQQGNVFSCSVMHEALHNHYTQESLSLSP light: not shown
39000	0.21	17000	14	890	225	1.2	64.4	1230		IL6R-BP567/IL6R-L (antibody, human IgG1, kappa) heavy: QVQLQESGPGLVKPSETLSLTCAVSGHSISHDHAWSWVRQPPGEGLEWIGFISYSGITNYNPSLQGRVTISRDNSKNTLYLQMNSLRAEDTAVYYCARSLARTTAMDYWGEGTLVTVSSASTKGPSVFPLAPSSKSTSGGTAALGCLVKDYFPEPVTVSWNSGALTSGVHTFPAVLQSSGLYSLSSVVTVPSSSLGTQTYICNVNHKPSNTKVDKKVEPKSCDKTHTCPPCPAPDLLGGDSVFLFPPKPKDTLMISRTPEVTCVVIDVAEEDGEVKFNWYVDGVEVHNAKTKPREEQDNSTYRVVSVLTVLHQDWLNGKEYKCKVSNKALPAPIEKTISKAKGQPREPQVYTLPPSRDELTKNQVSLTCLVKGFYPSDIAVEWESNGQPENNYKTTPPVLDSDGSFFLYSKLTVDKSRWQQGNVFSCSVMHEALHNHYTQESLSLSP light: not shown
									282	VH3/L(WT)-mIgG1 (antibody) heavy: QVQLQESGPGLVKPSETLSLTCAVSGHSISHDHAWSWVRQPPGEGLEWIGFISYSGITNYNPSLQGRVTISRDNSKNTLYLQMNSLRAEDTAVYYCARSLARTTAMDYWGEGTLVTVSSAKTTPPSVYPLAPGSAAQTNSMVTLGCLVKGYFPEPVTVTWNSGSLSSGVHTFPAVLQSDLYTLSSSVTVPSSTWPSETVTCNVAHPASSTKVDKKIVPRDCGCKPCICTVPEVSSVFIFPPKPKDVLTITLTPKVTCVVVDISKDDPEVQFSWFVDDVEVHTAQTQPREEQFNSTFRSVSELPIMHQDWLNGKEFKCRVNSAAFPAPIEKTISKTKGRPKAPQVYTIPPPKEQMAKDKVSLTCMITDFFPEDITVEWQWNGQPAENYKNTQPIMDTDGSYFVYSKLNVQKSNWEAGNTFTCSVLHEGLHNHHTEKSLSHSPGK light: not shown
